Experimental data taken from US20150374663A1 (UNIVERSITY OF ROCHESTER, published 2015).
Blank lines part the entries; values can stand above or below the binder they belong to. Ends that are not written are not given here.

Legend:
[1] = biological target: T1, type V tartrate-resistant acid phosphatase (TRAP) protein, immobilised on CM5 sensor chip; experiment: SPR, TRAP amine-coupled to CM5 chip, steady-state response vs concentration fit
Protocol: Surface plasmon resonance (SPR) is used to assess the affinity of peptides for TRAP. Series S Sensor CM5 Chips are functionalized with TRAP via 1-ethyl-3-(3-dimethylaminopropyl) carbodiimide (EDC)/N-hydroxysuccinimide (NHS) chemistry. Briefly, the chips, which have a carboxymethylated dextran functionality, are activated through the introduction of NHS and EDC. After activation, TRAP protein, at 30 μg/mL in sodium acetate (pH=5), is introduced to the surface. Ethanolamine-hydrochloric acid is used to quench unreacted carboxysuccinimide groups. Peptides are dissolved in running buffer of PBS with 0.005% Tween20. Peptides are analyzed in duplicate at different concentrations. Surface regeneration is achieved using a combination of 1 and 2 M NaCl and 1-50 mM NaOH solutions as necessary.
Target affinity can be determined by introducing increasing concentrations of the ligand to the surface. […] The binding response was measured and plotted against concentration (FIG. 4), allowing for a fitting of the data by a binding curve. From this fitting, values such as KD can be determined.

[2] = biological target: T1, type V tartrate-resistant acid …; experiment: SPR, TRAP-functionalized surface, binding curve fit (n = 2, Ave. ± StDev)
[3] = biological target: T1, type V tartrate-resistant acid …; experiment: SPR, TRAP-functionalized surface, binding curve fit
Protocol: Quantitative analyses of peptide and polymer affinities were performed using SPR. […] The binding of any molecules to the surface of the sensor chips results in a change in the angle of incident light reflection, allowing highly-sensitive detection of miniscule amounts of ligand binding to the surface. Target affinity can be determined by introduction of increasing concentrations of the molecule to the surface (FIG. 38A and FIG. 38B). […] The binding response is measured and plotted against concentration, allowing for a fitting of the data by a binding curve. From this fitting, values such as the dissociation constant (KD) value can be determined. Through this technique, the affinity of peptides and peptide-functionalized polymers were analyzed.

[4] = biological target: T1, type V tartrate-resistant acid …; experiment: SPR, TRAP amine-coupled to CM5 chip, initial rate analysis of sensorgrams
Protocol: Surface plasmon resonance (SPR) is used to assess the affinity of peptide-functionalized polymers for TRAP. Series S Sensor CM5 Chips are functionalized with TRAP via 1-ethyl-3-(3-dimethylaminopropyl) carbodiimide (EDC)/N-hydroxysuccinimide (NHS) chemistry. Briefly, the chips, which have a carboxymethylated dextran functionality, are activated through the introduction of NHS and EDC. After activation, TRAP protein, at 30 μg/mL in sodium acetate (pH=5), is introduced to the surface. Ethanolamine-hydrochloric acid is used to quench unreacted carboxysuccinimide groups. Polymers are dissolved in running buffer of PBS with 0.005% Tween20. Polymers are analyzed in duplicate at different concentrations. Surface regeneration is achieved using 1-10 mM NaOH solutions as necessary. […] Sensorgram data (FIG. 22) are exported from the SPR evaluation software after smoothing data of injection events and analyzed. Response units (RU) are converted into concentrations for rate analysis using the equation:
Where S is the concentration of polymer bound to the TRAP-functionalized surface and MW is the molecular weight of the polymer. The binding rates of polymers to TRAP are determined in the initial linear portion of association, within two seconds of the start of injection. […]

[5] = biological target: T2, TRAP deposited by osteoclasts on human cortical bone wafers (human, UniProt P13686 22-325, limits assumed); experiment: confocal imaging of fluorescently labeled peptide incubated overnight on human cortical bone wafers
T2 construct: The protein is native TRAP deposited on bone, not purified; also called bone wafers decorated with TRAP; resorption pits
T2 sequence (looked up): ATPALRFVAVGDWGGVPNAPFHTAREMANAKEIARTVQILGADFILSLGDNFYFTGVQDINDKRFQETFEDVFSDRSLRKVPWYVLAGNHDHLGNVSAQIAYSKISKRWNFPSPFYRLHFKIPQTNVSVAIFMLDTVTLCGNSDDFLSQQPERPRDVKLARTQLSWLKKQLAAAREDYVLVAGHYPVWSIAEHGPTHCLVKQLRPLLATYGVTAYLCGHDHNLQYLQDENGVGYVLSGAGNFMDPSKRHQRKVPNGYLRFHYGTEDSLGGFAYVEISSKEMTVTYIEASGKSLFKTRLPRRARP
Protocol: Equal concentrations of fluorescently labeled TBP and SCP are prepared in 1× phosphate-buffered saline (PBS). Bone wafers are cut from cortical bone obtained from the femur of a human donor cadaver and incubated in peptide solutions overnight, washed twice with 1×PBS, and then visualized via confocal imaging. Stacked sections are compressed into 2D images to allow for qualitative analysis as in FIG. 3A through FIG. 3D.

Kd [1]: ~200 µM | Kd [2]: 795 µM | Kd [3]: ~700 µM
B1: TRAP-binding peptide (TBP), TPLSYLKGLVTVG (peptide)
peptide: TPLSYLKGLVTVG-OH
modifications: also: fluorescent cadaverine label in bone wafer experiment, position not given here
notes: also called TRAP peptide

Kd [4]: 60 µM
B2: 10% TBP-functionalized PEG polymer (pTBP) of Table 4, M:CTA:I 300:1:0.1, Mn 40.1 kDa (other)
peptide: TPLSYLKGLVTVG-OH
modifications: not fully specified (N-terminus); also: copolymerized by RAFT with PEG methyl ether methacrylate (300 Da), ~9 peptides per chain, fluorescently labelled for bone-targeting studies, position not given here
notes: Random copolymer; Footnote e says it was used for the in vitro and in vivo bone-targeting studies, where it was fluorescently labeled; also called 10% TBP-functionalized polymer

binding result [5]: no binding
B3: scrambled control peptide (SCP), VPVGTLSYLKLTG (peptide)
peptide: VPVGTLSYLKLTG-OH
modifications: not fully specified; also: fluorescent cadaverine label in bone wafer experiment, position not given here
notes: In the bone wafer experiment it carried a fluorescent cadaverine label; also called scrambled peptide
